One block for each molecule: values may come before it.
Experiments:
APC PBM (Homo sapiens) = APC PBM (Homo sapiens) (UniProt P25054); conditions: cited from earlier work
[1] = molecular target: T1, hScrib/PDZ3 (AA 1005-1094) (human, UniProt Q14160 1005-1094); experiment: ITC; peptide (900-1100 µM) titrated into PDZ domain (75 µM); 25 mM Tris-HCl pH 8.0, 150 mM NaCl, 5 mM TCEP; 25 °C; 20 injections; one-site binding model; conditions: both partners purified
T1 construct: Scribble, human, PDZ3 domain, AA 1005-1094; In pGEX-6P-3 or pGIL-MBP; source: E. coli BL21 (DE3) CodonPlus or pLysS, purified
T1 sequence (looked up): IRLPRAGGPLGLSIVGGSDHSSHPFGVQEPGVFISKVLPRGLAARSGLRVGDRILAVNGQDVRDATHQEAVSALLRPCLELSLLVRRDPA

hScrib/PDZ1 (AA 728-815) = molecular target: T2, hScrib/PDZ1 (AA 728-815) (human, UniProt Q14160 728-815); experiment: as above; conditions: both partners purified
T2 construct: Scribble, human, PDZ1 domain, AA 728-815; In pGEX-6P-3 or pGIL-MBP; also called PDZ domain 1 of Scrib; source: E. coli BL21 (DE3) CodonPlus or pLysS, purified
T2 sequence (Q14160 728-815): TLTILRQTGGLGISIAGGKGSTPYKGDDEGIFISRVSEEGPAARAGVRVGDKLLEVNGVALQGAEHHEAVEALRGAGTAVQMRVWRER

[2] = molecular target: T3, human Scribble PDZ domain 1 (hScrib/PDZ1, AA 728-815) (human, UniProt Q14160 728-815); experiment: ITC; purified PDZ domain at 75 uM against the 8-mer peptide at 900-1100 uM, 20 injections, 25 °C, 25 mM Tris-HCl pH 8.0, 150 mM NaCl, 5 mM TCEP, one-site binding model; conditions: both partners purified
T3 construct: human Scribble (Scrib), PDZ domain 1, residues 728-815; source: E. coli BL21 (DE3) CodonPlus or pLysS, purified, tag cleaved
T3 sequence (Q14160 728-815): as above

[3] = molecular target: T4, human Scribble PDZ domain 3 (hScrib/PDZ3, AA 1005-1094) (human, UniProt Q14160 1005-1094); experiment: as above; conditions: both partners purified
T4 construct: human Scribble (Scrib), PDZ domain 3, residues 1005-1094; source: E. coli BL21 (DE3) CodonPlus or pLysS, purified, tag cleaved
T4 sequence (looked up): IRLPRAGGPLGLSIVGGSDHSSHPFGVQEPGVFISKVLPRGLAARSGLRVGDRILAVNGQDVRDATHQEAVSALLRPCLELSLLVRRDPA

APC PBM (Homo sapiens), sequence (P25054 whole entry, looked up, the tested form may be a part): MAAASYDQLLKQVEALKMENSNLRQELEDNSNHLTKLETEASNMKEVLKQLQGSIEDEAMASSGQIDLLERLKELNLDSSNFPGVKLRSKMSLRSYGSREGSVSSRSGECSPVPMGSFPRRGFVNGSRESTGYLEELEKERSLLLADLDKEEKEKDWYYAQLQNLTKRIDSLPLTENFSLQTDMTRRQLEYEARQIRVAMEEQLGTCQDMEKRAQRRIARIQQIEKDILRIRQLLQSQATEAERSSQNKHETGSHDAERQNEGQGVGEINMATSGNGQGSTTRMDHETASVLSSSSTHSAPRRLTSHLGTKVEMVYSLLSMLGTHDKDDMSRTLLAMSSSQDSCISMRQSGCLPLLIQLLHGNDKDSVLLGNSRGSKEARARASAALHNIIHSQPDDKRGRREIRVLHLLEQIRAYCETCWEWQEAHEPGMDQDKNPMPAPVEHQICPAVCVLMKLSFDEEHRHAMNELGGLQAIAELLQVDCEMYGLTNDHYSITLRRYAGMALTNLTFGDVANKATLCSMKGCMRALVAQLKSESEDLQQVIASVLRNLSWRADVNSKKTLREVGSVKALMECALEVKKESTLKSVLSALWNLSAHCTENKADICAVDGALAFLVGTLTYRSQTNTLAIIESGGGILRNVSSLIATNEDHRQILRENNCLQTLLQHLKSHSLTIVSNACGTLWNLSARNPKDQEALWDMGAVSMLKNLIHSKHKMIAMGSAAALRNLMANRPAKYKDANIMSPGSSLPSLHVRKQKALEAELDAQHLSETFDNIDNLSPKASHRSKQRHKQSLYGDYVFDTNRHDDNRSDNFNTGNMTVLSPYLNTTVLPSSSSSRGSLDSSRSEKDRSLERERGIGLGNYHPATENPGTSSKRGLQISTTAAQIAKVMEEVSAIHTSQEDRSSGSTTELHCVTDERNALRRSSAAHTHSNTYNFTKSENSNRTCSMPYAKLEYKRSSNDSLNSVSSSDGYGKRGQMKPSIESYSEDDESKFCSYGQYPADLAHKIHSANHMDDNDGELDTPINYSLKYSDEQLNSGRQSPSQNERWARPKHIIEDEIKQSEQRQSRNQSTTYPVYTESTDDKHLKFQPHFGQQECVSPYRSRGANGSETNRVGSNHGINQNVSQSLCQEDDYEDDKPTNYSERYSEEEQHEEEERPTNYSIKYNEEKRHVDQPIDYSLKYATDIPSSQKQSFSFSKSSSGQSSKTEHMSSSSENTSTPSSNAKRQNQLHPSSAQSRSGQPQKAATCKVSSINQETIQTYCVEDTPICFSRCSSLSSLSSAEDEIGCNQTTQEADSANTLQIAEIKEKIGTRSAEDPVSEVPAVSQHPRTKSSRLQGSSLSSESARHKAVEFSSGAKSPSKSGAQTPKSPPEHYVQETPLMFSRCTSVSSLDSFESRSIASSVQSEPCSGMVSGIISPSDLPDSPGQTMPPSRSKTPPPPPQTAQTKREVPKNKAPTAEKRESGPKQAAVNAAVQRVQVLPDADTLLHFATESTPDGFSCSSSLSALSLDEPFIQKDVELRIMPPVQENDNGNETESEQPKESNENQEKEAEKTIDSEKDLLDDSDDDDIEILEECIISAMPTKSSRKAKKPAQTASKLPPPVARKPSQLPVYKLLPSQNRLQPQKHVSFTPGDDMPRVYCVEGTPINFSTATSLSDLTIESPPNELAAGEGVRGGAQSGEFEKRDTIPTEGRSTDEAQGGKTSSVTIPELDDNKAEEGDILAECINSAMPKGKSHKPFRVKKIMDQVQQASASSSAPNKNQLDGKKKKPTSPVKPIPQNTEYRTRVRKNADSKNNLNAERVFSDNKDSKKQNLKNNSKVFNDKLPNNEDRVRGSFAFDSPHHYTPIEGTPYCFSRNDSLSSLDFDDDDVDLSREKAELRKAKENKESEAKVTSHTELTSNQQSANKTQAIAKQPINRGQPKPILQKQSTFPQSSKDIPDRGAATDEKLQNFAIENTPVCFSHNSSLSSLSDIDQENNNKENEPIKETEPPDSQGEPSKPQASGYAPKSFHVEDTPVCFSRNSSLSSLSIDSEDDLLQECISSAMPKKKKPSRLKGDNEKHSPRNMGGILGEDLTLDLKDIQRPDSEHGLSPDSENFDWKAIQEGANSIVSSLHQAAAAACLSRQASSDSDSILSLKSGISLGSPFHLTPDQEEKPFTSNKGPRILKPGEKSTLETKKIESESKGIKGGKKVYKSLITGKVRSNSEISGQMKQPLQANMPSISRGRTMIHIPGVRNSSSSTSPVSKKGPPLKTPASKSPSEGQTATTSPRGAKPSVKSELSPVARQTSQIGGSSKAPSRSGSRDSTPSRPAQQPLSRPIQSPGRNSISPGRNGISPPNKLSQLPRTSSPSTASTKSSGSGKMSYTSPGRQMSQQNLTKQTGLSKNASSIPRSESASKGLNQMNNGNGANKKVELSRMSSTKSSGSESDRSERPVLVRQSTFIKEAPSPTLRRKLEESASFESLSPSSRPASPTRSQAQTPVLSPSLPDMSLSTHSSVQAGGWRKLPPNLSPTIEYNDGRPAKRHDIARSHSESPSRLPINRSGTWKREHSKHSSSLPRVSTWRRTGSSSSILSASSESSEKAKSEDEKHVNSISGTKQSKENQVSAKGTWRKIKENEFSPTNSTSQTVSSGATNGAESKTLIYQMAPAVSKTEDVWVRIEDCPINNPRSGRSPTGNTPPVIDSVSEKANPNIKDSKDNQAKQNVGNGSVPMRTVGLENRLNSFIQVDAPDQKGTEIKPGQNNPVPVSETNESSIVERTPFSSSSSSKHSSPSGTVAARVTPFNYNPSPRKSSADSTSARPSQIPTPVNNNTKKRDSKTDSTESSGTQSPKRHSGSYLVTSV

Molecule: Scribble PDZ1 (from UniProt Q14160)
Kd (APC PBM (Homo sapiens)): 6 µM

Kd [1]: 9.12 µM
Kd (hScrib/PDZ1 (AA 728-815)): 18.2 µM
B1: C-terminally derived 8-mer human TMIGD1 peptide (DPHSETAL) (peptide)
peptide: DPHSETAL
notes: TMIGD1, human, the eight C-terminal residues with the PBM (SETAL), free C-terminal carboxyl; also called TMIGD1/WT; TMIGD1 PBM peptide; source: synthetic peptide (Genscript)

stoichiometry N [2]: 0.95 ± 0.07
stoichiometry N [3]: 0.93 ± 0.04
B2: C-terminally derived 8-mer human TMIGD1 peptide (peptide)
peptide: DPHSETAL
notes: also called TMIGD1/WT; TMIGD1 PBM peptide; source: synthetic peptide, obtained from Genscript

Source: publication PMC10333293, “Membrane recruitment of the polarity protein Scribble by the cell adhesion receptor TMIGD1” (Communications Biology, 2023)
